In the supplement of paper PMC10126150:
± gives the standard deviation of the averaged measurements.

system: ATP; test: switch fluorescence ratio, 500 uM ATP over buffer (Cy3 cluster intensity, sum of 5 cycles each) (fold (ratio)); higher = stronger signal-on switching upon ATP binding; sequences stand for … in TCGTCGGCAGCGTCAGATGTGTATAAGAGACAGTTTTTTTTTTTTTTTTTTTTTTTTT…TC; conditions: aptamer strand: ATP DNA aptamer (quencher-CACCTGGGGGAGTATTGCGGAGGAAGG + anchor), 100 nM annealed; ATP concentration: 500 uM
Method in brief: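 The fluorescence ratio divides summed target-cycle Cy3 intensity by summed buffer-cycle Cy3 intensity for each cluster and is averaged per switch-domain sequence. Cy3-labelled switching-strand clusters on a modified Illumina MiSeq flow-cell were annealed to 100 nM quencher-labelled ATP aptamer, then imaged in selection buffer and again after 15 min with 500 uM ATP at 22 °C. Five such cycles were run, with NaOH stripping and re-annealing between them, and clusters outside 100-1000 RFU were excluded.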
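Further: ATP exposure 15 min at 22 °C before imaging.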

Sequence	switch fluorescence ratio
GGTTGTGGGT	0.996 ± 0.015
GGTTGTTCTG	0.997 ± 0.015
GGTTGTTTCT	0.997 ± 0.0057
GGTTTAAAAA	0.969 ± 0.036
GGTTTAATTG	1.026 ± 0.0085
GGTTTAGAGA	1.02 ± 0.069
GGTTTAGCCT	1.04 ± 0.023
GGTTTAGCTG	0.984 ± 0.041
GGTTTAGTTG	0.9744 ± 0.0062
GGTTTAGTTT	0.99 ± 0.035
GGTTTATATA	1.006 ± 0.0018
GGTTTATCAA	1.0008 ± 0.00076
GGTTTATCAG	0.983 ± 0.021
GGTTTATTAT	1.02 ± 0.017
GGTTTCAGCA	1.01 ± 0.042
GGTTTCCGGG	1.01 ± 0.035
GGTTTCCTGT	1.01 ± 0.043
GGTTTCGTTG	1 ± 0.046
GGTTTGAGAA	1.018 ± 0.0031
GGTTTGAGAG	0.989 ± 0.048
GGTTTGATGC	0.962 ± 0.055
GGTTTGCACG	0.992 ± 0.042
GGTTTGGATC	1.02 ± 0.018
GGTTTGGTCG	1.01 ± 0.037
GGTTTGGTGG	0.992 ± 0.028

Sequence	switch fluorescence ratio
GGTTTGGTTC	0.957 ± 0.083
GGTTTGGTTG	1.003 ± 0.008
GGTTTGGTTT	1 ± 0.021
GGTTTGTAGG	0.954 ± 0.02
GGTTTGTGCT	0.94 ± 0.051
GGTTTGTGGT	1.03 ± 0.062
GGTTTGTTTG	0.999 ± 0.025
GGTTTTCACC	0.9866 ± 0.0065
GGTTTTCGAA	1.01 ± 0.042
GGTTTTCGGG	0.969 ± 0.035
GGTTTTCTGT	0.997 ± 0.016
GGTTTTGATT	0.998 ± 0.0089
GGTTTTGGGA	0.998 ± 0.019
GGTTTTGTGC	1.03 ± 0.091
GGTTTTTCGA	0.983 ± 0.034
GGTTTTTCGC	1.028 ± 0.0029
GGTTTTTGGG	0.994 ± 0.033
GGTTTTTGGT	1 ± 0.032
GGTTTTTGTT	0.991 ± 0.039
GGTTTTTTTG	1.02 ± 0.037
GTAAAAGCTC	1.02 ± 0.018
GTAAAAGGGT	1 ± 0.02
GTAAAAGTCG	1.03 ± 0.015
GTAAAATTGG	0.998 ± 0.025
GTAAGAAGGA	1.02 ± 0.07

Sequence	switch fluorescence ratio
GTAAGAGCGG	0.9983 ± 0.0065
GTAAGCAAAG	1.2 ± 0.081
GTAAGGAGGG	0.981 ± 0.032
GTAAGGGAAT	0.9718 ± 0.0065
GTAAGGGATT	1.025 ± 0.0068
GTAAGGGGGA	0.984 ± 0.031
GTAAGGGGGC	0.984 ± 0.011
GTAAGTACTG	1.36 ± 0.015
GTAATAGGAG	1.02 ± 0.039
GTAATCGATT	1.07 ± 0.022
GTAATGATCT	1.06 ± 0.036
GTAATTAATT	0.978 ± 0.025
GTAATTGCTG	1.01 ± 0.059
GTAATTGGGT	0.986 ± 0.015
GTAATTTCGT	0.99733 ± 0.0004
GTACCATCTG	0.976 ± 0.02
GTACCCTCAA	1.03 ± 0.024
GTACCCTGGA	1.03 ± 0.03
GTACCTAACT	1.2 ± 0.025
GTACGAGTCC	1.01 ± 0.015
GTACGGGGGA	1.002 ± 0.0056
GTACTACCTA	1.14 ± 0.022
GTACTATTAT	1.038 ± 0.0052
GTACTATTTT	1.036 ± 0.0037
GTACTTCATC	1.06 ± 0.058

Sequence	switch fluorescence ratio
GTAGAATGTG	0.983 ± 0.03
GTAGAGAGGG	0.992 ± 0.053
GTAGATTGG	0.9872 ± 0.0035
GTAGCAGGCG	1.13 ± 0.058
GTAGCATATT	1.49 ± 0.011
GTAGCGATAG	4.13 ± 2.2
GTAGCGCGTC	1.03 ± 0.026
GTAGCTGGTG	1.02 ± 0.018
GTAGCTTATC	2.08 ± 0.067
GTAGGAACCT	1.8 ± 0.12
GTAGGGGATA	1.02 ± 0.026
GTAGGGGATC	1.04 ± 0.058
GTAGGTAACG	0.9867 ± 0.0079
GTAGGTATGG	0.969 ± 0.015
GTAGTAGCCA	1.01 ± 0.033
GTAGTAGGTG	1 ± 0.033
GTAGTATCAG	1 ± 0.017
GTAGTATTAT	0.991 ± 0.035
GTAGTATTTT	0.994 ± 0.028
GTAGTCATTT	0.992 ± 0.022
GTAGTCGGAT	1.002 ± 0.0021
GTAGTGGGGG	0.975 ± 0.027
GTAGTTGGAA	0.9968 ± 0.0085
GTAGTTGTGG	1.01 ± 0.014
GTATAAAAGT	1.01 ± 0.03
